From patent publication US20230330251A1, “METHODS FOR TREATING CANCERS WITH ANTIBODY DRUG CONJUGATES (ADC) THAT BIND TO 191P4D12 PROTEINS” (AGENSYS, INC., priority 2020, published 2023)

Tested on: subjects with previously treated locally advanced or metastatic urothelial cancer
Test: EV-301: safety, adverse events (safety analysis set, NCI-CTCAE v4.03, MedDRA)
[1] = Any Grade, N = 296 EV, 291 chemotherapy
[2] = Baseline PN, n = 55 EV, 58 chemotherapy
[3] = Grade 1, N = 296 EV, 291 chemotherapy
[4] = Grade 2, N = 296 EV, 291 chemotherapy
[5] = Grade 3, N = 296 EV, 291 chemotherapy
[6] = Grade 4, N = 296 EV, 291 chemotherapy
[7] = Grade Any, N = 296 EV, 291 chemotherapy

Excerpt: The Safety Analysis Set (SAF) will be used for the safety analysis. All subjects who are randomized and received study drug will be included in the SAF. The frequency of AEs and the serious AEs will be summarized by MedDRA system organ class and preferred term. In addition, summary statistics will be provided for the following safety parameters: • Laboratory values • Vital sign measurements • ECOG PS
An AE is any untoward medical occurrence in a subject, temporally associated with the use of a medicinal product, whether or not considered related to the medicinal product. An AE can therefore be any unfavorable and unintended sign (including an abnormal laboratory finding), symptom, or disease (new or exacerbated) temporally associated with the use of a medicinal product.
AEs, including abnormal clinical laboratory values, will be graded using the NCI-CTCAE guidelines (Version 4.03).
The safety analysis set (SAF), which consists of all subjects who received any amount of study drug, will be used for safety analyses.
SAF was used to perform all safety analysis. All treated subjects were analyzed according to the treatment they received.
The number and percentage of AEs by severity were also summarized. All AEs were listed.
A study drug-related TEAE is defined as any TEAE with a causal relationship of YES by the investigator. AEs of interest as classified by customized MedDRA queries and/or standard MedDRA queries were also summarized.

## enfortumab vedotin
% of patients
  Treatment-related adverse events of grade 3 or higher: 51.4%
  Treatment-related adverse events resulting in dose reduction: 32.4%
  Treatment-related adverse events resulting in interruption of treatment: 51.0%
  Treatment-related adverse events resulting in withdrawal of treatment: 13.5%
  grade 3 or higher treatment-related decreased neutrophil count: 6.1%
  grade 3 or higher treatment-related fatigue: 6.4%
  grade 3 or higher treatment-related maculopapular rash: 7.4%
All, N = 296 EV, 291 SC
  Grade ≥3 TRAE: Decreased neutrophil count, %: 6.1%
  Grade ≥3 TRAE: Decreased white blood cell count, %: 1.4%
  Grade ≥3 TRAE: Fatigue, %: 6.4%
  Grade ≥3 TRAE: Febrile neutropenia, %: 0.7%
  Grade ≥3 TRAE: Maculopapular rash, %: 7.4%
  Grade ≥3 TRAE: Neutropenia, %: 4.7%
[1]
  TRAE: Alopecia, Number of patients: 134
  TRAE: Alopecia, percent: (45.3) percent
  TRAE: Anemia, Number of patients: 34
  TRAE: Anemia, percent: (11.5) percent
  TRAE: Any adverse event, Number of patients: 278
  TRAE: Any adverse event, percent: (93.9) percent
  TRAE: Decreased appetite, Number of patients: 91
  TRAE: Decreased appetite, percent: (30.7) percent
  TRAE: Decreased neutrophil count, Number of patients: 30
  TRAE: Decreased neutrophil count, percent: (10.1) percent
  TRAE: Decreased white-cell count, Number of patients: 16
  TRAE: Decreased white-cell count, percent: (5.4) percent
  TRAE: Diarrhea, Number of patients: 72
  TRAE: Diarrhea, percent: (24.3) percent
  TRAE: Dysgeusia, Number of patients: 72
  TRAE: Dysgeusia, percent: (24.3) percent
  TRAE: Fatigue, Number of patients: 92
  TRAE: Fatigue, percent: (31.1) percent
  TRAE: Febrile neutropenia, Number of patients: 2
  TRAE: Febrile neutropenia, percent: (0.7) percent
  TRAE: Maculopapular rash, Number of patients: 48
  TRAE: Maculopapular rash, percent: (16.2) percent
  TRAE: Nausea, Number of patients: 67
  TRAE: Nausea, percent: (22.6) percent
  TRAE: Neutropenia, Number of patients: 20
  TRAE: Neutropenia, percent: (6.8) percent
  TRAE: Peripheral sensory neuropathy, Number of patients: 100
  TRAE: Peripheral sensory neuropathy, percent: (33.8) percent
  TRAE: Pruritus, percent: (32.1) percent
Baseline BMI <30 kg/m^2, n = 255 EV, 244 chemotherapy
  Treatment-emergent Hyperglycemia, %: 9.0%
Baseline BMI ≥30 kg/m^2, n = 41 EV, 46 chemotherapy
  Treatment-emergent Hyperglycemia, %: 29.3%
[2]
  Treatment-emergent Hyperglycemia, %: 38.2%
  Treatment-emergent Peripheral motor neuropathy, %: 20.0%
  Treatment-emergent Peripheral neuropathy, %: 49.1%
  Treatment-emergent Peripheral sensory neuropathy, %: 40.0%
[3]
  TRAE of special interest: Blurred vision, %: 3.4%
  TRAE of special interest: Corneal disorders, %: 0.7%
  TRAE of special interest: Dry eye, %: 11.5%
  TRAE of special interest: Extravasation site reactions, %: 0.3%
  TRAE of special interest: Hyperglycemia, %: 1.0%
  TRAE of special interest: Infusion-related reactions, %: 3.7%
  TRAE of special interest: Infusion-related reactions, Local events, %: 0.3%
  TRAE of special interest: Infusion-related reactions, Systemic events, %: 3.4%
  TRAE of special interest: Ocular disorders, %: 13.5%
  TRAE of special interest: Peripheral neuropathy, %: 14.9%
  TRAE of special interest: Peripheral neuropathy, Motor events, %: 1.7%
  TRAE of special interest: Peripheral neuropathy, Sensory events, %: 14.5%
  TRAE of special interest: Rash, %: 13.9%
  TRAE of special interest: Severe cutaneous adverse reaction, %: 6.8%
  TRAE of special interest: Skin reactions, %: 13.9%
[4]
  TRAE of special interest: Blurred vision, %: 0.7%
  TRAE of special interest: Dry eye, %: 3.7%
  TRAE of special interest: Extravasation site reactions, %: 0.7%
  TRAE of special interest: Hyperglycemia, %: 1.4%
  TRAE of special interest: Infusion site reactions, %: 0.7%
  TRAE of special interest: Infusion-related reactions, %: 3.7%
  TRAE of special interest: Infusion-related reactions, Local events, %: 0.7%
  TRAE of special interest: Infusion-related reactions, Systemic events, %: 3.0%
  TRAE of special interest: Ocular disorders, %: 4.4%
  TRAE of special interest: Peripheral neuropathy, %: 26.4%
  TRAE of special interest: Peripheral neuropathy, Motor events, %: 4.1%
  TRAE of special interest: Peripheral neuropathy, Sensory events, %: 25.7%
  TRAE of special interest: Rash, %: 15.5%
  TRAE of special interest: Severe cutaneous adverse reaction, %: 8.4%
  TRAE of special interest: Skin reactions, %: 18.6%
[5]
  TRAE of special interest: Dry eye, %: 0.7%
  TRAE of special interest: Hyperglycemia, %: 3.7%
  TRAE of special interest: Infusion-related reactions, %: 1.4%
  TRAE of special interest: Infusion-related reactions, Systemic events, %: 1.4%
  TRAE of special interest: Ocular disorders, %: 0.7%
  TRAE of special interest: Peripheral neuropathy, %: 5.1%
  TRAE of special interest: Peripheral neuropathy, Motor events, %: 1.7%
  TRAE of special interest: Peripheral neuropathy, Sensory events, %: 3.7%
  TRAE of special interest: Rash, %: 14.2%
  TRAE of special interest: Severe cutaneous adverse reaction, %: 4.7%
  TRAE of special interest: Skin reactions, %: 14.2%
[6]
  TRAE of special interest: Rash, %: 0.3%
  TRAE of special interest: Severe cutaneous adverse reaction, %: 0.3%
  TRAE of special interest: Skin reactions, %: 0.3%
Grade 5, N = 296 EV, 291 chemotherapy
  TRAE of special interest: Hyperglycemia, %: 0.3%
[7]
  TRAE of special interest: Blurred vision, %: 4.1%
  TRAE of special interest: Corneal disorders, %: 0.7%
  TRAE of special interest: Dry eye, %: 15.9%
  TRAE of special interest: Extravasation site reactions, %: 1.0%
  TRAE of special interest: Hyperglycemia, %: 6.4%
  TRAE of special interest: Infusion site reactions, %: 0.7%
